Consider 41 sequences from the nanobody polyreactivity screen of Harvey et al. (2022).

The data set can be described thus: yeast display, Sf9 membrane polyspecificity reagent, FACS + sequencing; frameworks hold sequencing errors. A digest of the protocol:
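Genes from sorted yeast were amplified by colony PCR, read by MiSeq 2 × 250 sequencing and filtered on CDR length. These cells carried a synthetic nanobody library in Saccharomyces cerevisiae BJ5465 and were sorted by FACS into low and high (top ~1%) gates on anti-HA and streptavidin fluorescence. Polyreactivity is labelled according to the gate of origin.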
With “QVQLVESGGGLVQAGGSLRLSCAASGSIFTDYTMGWYRQAPGKERELVAAISWIGDSTDYADSVKGRFTISRDNAKNTVYLQMNSLNPEDTAVYYCAKSRAGRYNDYDYWGQGTQVTVSS”, the “polyreactivity (PSR sort gate)” value is “low polyreactivity”.
Consider “QVQLVESGGGLVQAGGSLRLSCAASGSIFTFYAMGWYRPAPGKERELVAAITRSGGSTYYADSVKGRFTISRDNAKNTVYLQMNSLKPEDTAVYYCAKDPSSYVTYRYYYWGQGTEVTVSS”, for which the “polyreactivity (PSR sort gate)” value is on record as “low polyreactivity”.
In the case of “QVQLVESGGGLVQAGGSLRLSCAASGSIFTFYAMGWYRQAPGKERELVAAISYGGGITYYADSVKGRFTISRDNAKISVYLQMNSLIPEDSAVYYCAADDGYYNLYFDYDFWGQGTQLTVSS”, the “polyreactivity (PSR sort gate)” value is on record as “low polyreactivity”.
The entry for “QVQLVESGGGLVQAGGSLRLSCAASGSIFTFYAMGWYRQAPGKERELVASITSGAGITYYADSVKGRFTISRDNAKNTVYLQMNSLKPEDTAVYYCAADWSGDFFTDGYWGQGTQVTVSS” is “low polyreactivity”; for “QVQLVESGGGLVQAGGSLRLSCAASGSIFTFYAMGWYRQAPVKERELVAGIRWRGGTSTFYADSVKGRFTISRDNAKNTVYLQMNSLKPEDTAVYYCAAKRRTGGNGYWGQGTQVTVSS” it is “high polyreactivity”; for “QVQLVESGGGLVQAGGSLRLSCAASGSIFTGNTMGWYRQAPGNERELVAAMSRRGGRTYYADSVKGRFTISRDNAKNTVYLQMNSLKPEDPAVYYCAADGWYWTYIVEYWGQGTQVTVSS” it is “high polyreactivity”.
The entry for “QVQLVESGGGLVQAGGSLRLSCAASGSIFTHNAMGCYRQAPGKERELVAAMSSGGSTNDADSVKGRFTISRDNAKNTVYLKMNSLTPEDTAVYYCAKSIDGWYWRRRRYDYWGQGTQVTVSS” is “low polyreactivity”; for “QVQLVESGGGLVQAGGSLRLSCAASGSIFTHYAMGWYRQAPGKERELVAGITSSGGSTYADSVKGRFTISRDNAKNTVYLQMNSLKPEDTAVYYCNADNATYFVYEFNYWGQGTQVTVSS” it is “low polyreactivity”.
The entry for “QVQLVESGGGLVQAGGSLRLSCAASGSIFTINAMGWYRQAPGIERALVAAIRSGGGTNYADSVKGRFTISRDNAKNTVYFQMNSLKPEDTAVYYCAADLWAGKYGEYDYWGQGTQVTVSS” is “high polyreactivity”.
Consider “QVQLVESGGGLVQAGGSLRLSCAASGSIFTINAMGWYSQAPGKERELVAALTSGGSTSYADSVKGRFTISRDIAKNTVYLQMNSLKPEDTAVYYCAADAKRFYPYRWRLYYWGQGTQVTVSS”, for which the “polyreactivity (PSR sort gate)” value is given as “high polyreactivity”.
Consider “QVQLVESGGGLVQAGGSLRLSCAASGSIFTLNAMGWYRQAPGKERELVAAISRSGGSTYYADSVKGRFTISRDNAKNTVYLQMNSLKPEDTAVYYCAVYVTRDSGWWLYDYWGQGTQVTVSS”, for which the “polyreactivity (PSR sort gate)” value is on record as “high polyreactivity”.
The entry for “QVQLVESGGGLVQAGGSLRLSCAASGSIFTLYAMGWYRQAPGKERELVAAITWSGGSTYYADSVKGRFTISRDNAKNTVYLQMNSLKPEDTAVYFCAKDYLAGGPWEGHVEREYDYWGQGTQVTVSS” is “low polyreactivity”; for “QVQLVESGGGLVQAGGSLRLSCAASGSIFTPNAMGWYRQAPGKERALVAAISSSSDRTYYADSVKGRFTISRDNAKNTVYLQMNSLKPEDTAVYYCAAYAQKRYYWGQGTQVTVSS” it is “high polyreactivity”.
For “QVQLVESGGGLVQAGGSLRLSCAASGSIFTPNSMGSYRPAPGKERELVAAISSSSDRTYYADSVKGRFTISRDNAKNTVYLQRNSLKPEDTAVYYCAAYAQKRYYWGQGTEVTVSS”, the “polyreactivity (PSR sort gate)” value is “high polyreactivity”.
With “QVQLVESGGGLVQAGGSLRLSCAASGSIFTPYAMGWYRQAPGKERELVAAISRSGGSTYYADSVKGRFTISRDKAKNTVYLQMNRLKPADSAVYYCAADVQTLITLGQFDYWGQGTQVTVSS”, the “polyreactivity (PSR sort gate)” value is recorded as “low polyreactivity”.
Under “QVQLVESGGGLVQAGGSLRLSCAASGSIFTPYAMGWYRQAPGKERELVAAISRSGGSTYYADSVKGRFTISRDNAKITVYLQMNSLKPEDTAVYYCAVVASLSHTETPEYDYWGQGTQGTVSS” stands “low polyreactivity”; under “QVQLVESGGGLVQAGGSLRLSCAASGSIFTPYAMGWYRQAPGKERELVATISARGGSTYYADSVKGRFTISRDNAKNTVYLQMNSLKPEDTAVYYCNVDYAQRVFLYDYWGQGTQVTVSS”, “low polyreactivity”.
On to “QVQLVESGGGLVQAGGSLRLSCAASGSIFTRNAMGWYRQAPGKERELVAAISWRGGITNYADSVKGRFTISRDNAKNTVYLQMNSLKPEDTAVYYCNKKRTRGGYGYWGQGTQVTVSS”, for which the “polyreactivity (PSR sort gate)” value is reported as “high polyreactivity”.
The entry for “QVQLVESGGGLVQAGGSLRLSCAASGSIFTRNTMGWSRQAPGKERELVAAISQRGGSTYSADSVKGRFTISRDNAKNTVYLQMNSLKPEDTAVYYCAADFSFGYYWDGFWGQGTQVTVSS” is “high polyreactivity”.
Under “QVQLVESGGGLVQAGGSLRLSCAASGSIFTRYAMGWYRQAPGKERELVAAISRSDGGTNYADSVKGRFTISRDNAKNTVYLQMNSLKPEDTAVYYCAKDWYYYYPYDYWGQGTQVTVSS” stands “low polyreactivity”; under “QVQLVESGGGLVQAGGSLRLSCAASGSIFTRYVQGWYRQAPGNDRELVAAISGRGSSTYYADSVKGRFTISRDNAKNTVYLQMNSLKPEDTAVYYCAAEIVVFYSEGQRNTFYYWGQGTQVTVSS”, “high polyreactivity”.
As for “QVQLVESGGGLVQAGGSLRLSCAASGSIFTSNAMGWYRQAPVKERELVASISSDGSTKYADSVKGRFTISRDNAKNTVYLQMNSLKPEDTAVYYCAADLGYWVYVEYDYWGQGTQVTVSS”, the “polyreactivity (PSR sort gate)” value is listed as “low polyreactivity”.
The entry for “QVQLVESGGGLVQAGGSLRLSCAASGSIFTSYAIGWYRQAPGKERELVAGIDWSGGGTYYADSVKGRFTISRDNAKNTVYLQMNSLKPEDTAVYYCNADGPYTRYGPVDYWGQGTQVTVSS” is “low polyreactivity”.
Under “QVQLVESGGGLVQAGGSLRLSCAASGSIFTSYAMGWYRQAPGKERELVAGITRGGRTYYADSVKGRFTISRDNAKNTVYLQMNSLKPEDTAVYYCAALSSRHFVFTVDYWGQGTQVTVSS” stands “high polyreactivity”.
Under “QVQLVESGGGLVQAGGSLRLSCAASGSIFTSYGMGWYRQAPGKERELVAAITYSGDRTYYADSVKGRFTISRDNAKITVYLQMNSLNPEDTAVYYCNVAYVYGSFRRRPMGYWGQGTQVTVSS” stands “high polyreactivity”; under “QVQLVESGGGLVQAGGSLRLSCAASGSIFTTYAMGWSRQAPGKERELVAAISRSGGSTYSADSVKGRFTISRDNANYTVYLQKNSLKPEDTAVYYCNAVSRYTSDYEDDYWGLGTQVTVSS”, “high polyreactivity”.
As to “QVQLVESGGGLVQAGGSLRLSCAASGSIFTTYAMGWYRQAPGKERELVAAISRAGDTTYADSVKGRFTISRDNAKNTVYLQMNSLKPEDTAVYYCADYDYWGQGTQVTVSS”, the “polyreactivity (PSR sort gate)” value is recorded as “low polyreactivity”.
The entry for “QVQLVESGGGLVQAGGSLRLSCAASGSIFTTYAMGWYRQAPGKERELVAGITGGDSSTYADSVKGRFTISRDNAKNTVYLQMNSLKPEDTAVYYCAVDSPYQHDDYWGQGTQVTVSS” is “low polyreactivity”; for “QVQLVESGGGLVQAGGSLRLSCAASGSIFTTYAMGWYRQAPGKERELVAVISRRGGSTYYADSVKGRFTISRDNAKNTVYLQMNSLTPEDTADYYCNAYTYTYHRDHTDRYNYWGQGTQVTVSS” it is “high polyreactivity”; for “QVQLVESGGGLVQAGGSLRLSCAASGSIFTVNAMGWYRPAPAKERELVATISDTGGSTYADSVKGRFTISRYNAKNTVYLQMNSLKPEDTAVYYCNADYYVRRYPPYDYWGQGTQVTVSS” it is “low polyreactivity”.
The entry for “QVQLVESGGGLVQAGGSLRLSCAASGSIFTVNAMGWYRQAPGKERELVAAIDGSSGSTNYADSVKGRFTISRDNAKNTVYLQMNSLKPEDTAVYYCAADWSYEYGYWGQGTQVTVSS” is “low polyreactivity”; for “QVQLVESGGGLVQAGGSLRLSCAASGSIFTVYAMGWSRQAPGKERELVAAITSGGSTNYADSVKGRFTISRDNAKNTVYLQMNSLKPEDTAVYDCNAVWRYGSARYGYWGQGTQVTVSS” it is “low polyreactivity”; for “QVQLVESGGGLVQAGGSLRLSCAASGSIFTWYTMGWYRQAPGKERELVAGIRTGGSTYYADSVKGRFTISRDNAKNTVYLQMNSLKPEDTSVYYCARQRWYRQYYFTSDYWGLGTQVTVSS” it is “high polyreactivity”.
Under “QVQLVESGGGLVQAGGSLRLSCAASGSIFTYNAMGWYRPAPGKERELVAAINTSGSTNYADSVKGRFTISRDNAKNTVYLQMNSLKPEVTAVFYCAAGIVVTGYYYWGQGTQVTVSS” stands “low polyreactivity”; under “QVQLVESGGGLVQAGGSLRLSCAASGSIFTYNAMGWYRQAPGKERELVAAIRLSGGSTYYADSVKGRFTISRDNAKNTVYLQMNSLKPEDTAVYYCATEYDYGSWYPDGWGIFDYWGQGTQVTVSS”, “low polyreactivity”.
Take “QVQLVESGGGLVQAGGSLRLSCAASGSIFTYNAMGWYRQAPGKERELVATISDGGSTYYADSVKGRFTISRDNAKNTVYLQMNSLKPEDTAVYYCNKDRVSVRYEYWGQGTQVTVSS”: the “polyreactivity (PSR sort gate)” value is “low polyreactivity”.
The entry for “QVQLVESGGGLVQAGGSLRLSCAASGSIFTYNVMGWYRQAPGKERELVAAIRTRGDRTYYADSVKGRFTISRDNAKNTVYLQMNSLKPEDTAVYYCAAAGSYYSHEYWGQGTQVTVSS” is “high polyreactivity”; for “QVQLVESGGGLVQAGGSLRLSCAASGSIFTYTMGWYRQAPGKERELVAVISRSGGRTYYADSVKGRFTISRDNAKNTVYLQMNSLKPEDTAVYYCATDGHNGYYGRYDYWGQGTQVTVSS” it is “high polyreactivity”; for “QVQLVESGGGLVQAGGSLRLSCAASGSIFTYYAKGWYRQAPGKERELVAAISRRGTRTYYADSVKGRFTISRDNAKNTVYLQMNSLKPEDTAVYYCAKVGYTYRAYEFAYWGQGTQVTVSS” it is “high polyreactivity”.
For “QVQLVESGGGLVQAGGSLRLSCAASGSIFTYYAMGWYRQAPGKEREFVAAINRSGGSTYYADSVKGRFTISRDNAKYTVYLQMNSLKPEDTAVYYCAARRGSGALRYNYWGQGTQVTVSS”, the “polyreactivity (PSR sort gate)” value is reported as “high polyreactivity”.
For the sequence “QVQLVESGGGLVQAGGSLRLSCAASGSIFTYYAMGWYRQAPGKERELVAAISWNGGTTYYADSVKGLFTISRDNAKNTVYLQMNSLKPEDTAVYYCNKDGSYRYDYWGQGTQVTVSS”, the “polyreactivity (PSR sort gate)” value is given as “low polyreactivity”.
